The values below come from the Human Domainome abundance scans (Beltran et al. 2025).

Sequences and labels used below:
B1: Tripartite motif-containing protein 6, residues 93 to 134; numbered along this chain, Q9C030 (parent)
chain: KAVLCADHGEKLQLFCQEDGKVICWLCERSQEHRGHHTFLVE

± gives the uncertainty stated by the source.

Variants of B1 are the subject of the data set. The data set is described as follows: abundance fitness (aPCA) (normalised: wild type 0, dead -1); higher = more abundant; growth selection in yeast, the domain comes from the species named. As to conditions: Homo sapiens.
KAVLCADHGEKLQLFCQEDGKVICWLCERQQEHRGHHTFLVE [S30Q]: the abundance fitness was determined as 0.022 ± 0.11. As to KAVLCADHGEKLQLFCQEDGKVICWLCERIQEHRGHHTFLVE [S30I], the abundance fitness came out at 0.167 ± 0.39. Regarding KAVLCADHGEKLQLFCQEDGKVICWLCERWQEHRGHHTFLVE [S30W], the abundance fitness was -0.686 ± 0.11.

For KAVLCADHGEKLQLFCQEDGKVICWLCERYQEHRGHHTFLVE [S30Y], the abundance fitness is -0.313 ± 0.13. KAVLCADHGEKLQLFCQEDGKVICWLCERDQEHRGHHTFLVE [S30D]: the abundance fitness amounted to 0.002 ± 0.39. For KAVLCADHGEKLQLFCQEDGKVICWLCERTQEHRGHHTFLVE [S30T], the abundance fitness is -0.15 ± 0.18.

Take KAVLCADHGEKLQLFCQEDGKVICWLCERCQEHRGHHTFLVE [S30C]: the abundance fitness was -0.104 ± 0.11. On to KAVLCADHGEKLQLFCQEDGKVICWLCERHQEHRGHHTFLVE [S30H], for which the abundance fitness is -0.209 ± 0.23. As to KAVLCADHGEKLQLFCQEDGKVICWLCERFQEHRGHHTFLVE [S30F], the abundance fitness is -0.575 ± 0.18. Next, KAVLCADHGEKLQLFCQEDGKVICWLCERPQEHRGHHTFLVE [S30P]: -0.7 ± 0.13; KAVLCADHGEKLQLFCQEDGKVICWLCERRQEHRGHHTFLVE [S30R]: -0.168 ± 0.061. As for KAVLCADHGEKLQLFCQEDGKVICWLCERAQEHRGHHTFLVE [S30A], the abundance fitness was -0.016 ± 0.063.

Regarding KAVLCADHGEKLQLFCQEDGKVICWLCERMQEHRGHHTFLVE [S30M], the abundance fitness worked out at 0.026 ± 0.081.

For the variant KAVLCADHGEKLQLFCQEDGKVICWLCERGQEHRGHHTFLVE [S30G], the abundance fitness was -0.135 ± 0.042.

As to KAVLCADHGEKLQLFCQEDGKVICWLCERNQEHRGHHTFLVE [S30N], the abundance fitness was -0.142 ± 0.093. In the case of KAVLCADHGEKLQLFCQEDGKVICWLCERKQEHRGHHTFLVE [S30K], the abundance fitness was -0.307 ± 0.11.

As to KAVLCADHGEKLQLFCQEDGKVICWLCEREQEHRGHHTFLVE [S30E], the abundance fitness was -0.148 ± 0.066. For KAVLCADHGEKLQLFCQEDGKVICWLCEESQEHRGHHTFLVE [R29E], the abundance fitness is -0.094 ± 0.074. As for KAVLCADHGEKLQLFCQEDGKVICWLCEHSQEHRGHHTFLVE [R29H], the abundance fitness was found to be 0.051 ± 0.19. In the case of KAVLCADHGEKLQLFCQEDGKVICWLCEGSQEHRGHHTFLVE [R29G] it was -0.189 ± 0.066; in that of KAVLCADHGEKLQLFCQEDGKVICWLCEDSQEHRGHHTFLVE [R29D], -0.268 ± 0.15; in that of KAVLCADHGEKLQLFCQEDGKVICWLCESSQEHRGHHTFLVE [R29S], -0.289 ± 0.082. KAVLCADHGEKLQLFCQEDGKVICWLCEKSQEHRGHHTFLVE [R29K]: the abundance fitness was -0.05 ± 0.073.

For KAVLCADHGEKLQLFCQEDGKVICWLCEASQEHRGHHTFLVE [R29A], the abundance fitness was -0.331 ± 0.073. With KAVLCADHGEKLQLFCQEDGKVICWLCEYSQEHRGHHTFLVE [R29Y], the abundance fitness was -0.24 ± 0.16. Turning to KAVLCADHGEKLQLFCQEDGKVICWLCEFSQEHRGHHTFLVE [R29F], the abundance fitness is -0.458 ± 0.33. On to KAVLCADHGEKLQLFCQEDGKVICWLCEQSQEHRGHHTFLVE [R29Q], for which the abundance fitness was -0.164 ± 0.074. For KAVLCADHGEKLQLFCQEDGKVICWLCEMSQEHRGHHTFLVE [R29M], the abundance fitness is -0.121 ± 0.098. Take KAVLCADHGEKLQLFCQEDGKVICWLCEISQEHRGHHTFLVE [R29I]: the abundance fitness is -0.207 ± 0.11. Next, KAVLCADHGEKLQLFCQEDGKVICWLCEVSQEHRGHHTFLVE [R29V]: -0.299 ± 0.074. In the case of KAVLCADHGEKLQLFCQEDGKVICWLCELSQEHRGHHTFLVE [R29L] it was -0.175 ± 0.082. As for KAVLCADHGEKLQLFCQEDGKVICWLCERSQEWRGHHTFLVE [H33W], the abundance fitness was -0.804 ± 0.15. Next, KAVLCADHGEKLQLFCQEDGKVICWLCERSQEGRGHHTFLVE [H33G]: -0.643 ± 0.1; KAVLCADHGEKLQLFCQEDGKVICWLCERSQECRGHHTFLVE [H33C]: -0.246 ± 0.36. Turning to KAVLCADHGEKLQLFCQEDGKVICWLCERSQETRGHHTFLVE [H33T], the abundance fitness was -0.685 ± 0.26.

Regarding KAVLCADHGEKLQLFCQEDGKVICWLCERSQEMRGHHTFLVE [H33M], the abundance fitness was -0.549 ± 0.11. With KAVLCADHGEKLQLFCQEDGKVICWLCERSQEARGHHTFLVE [H33A], the abundance fitness is -0.392 ± 0.1. Take KAVLCADHGEKLQLFCQEDGKVICWLCERSQERRGHHTFLVE [H33R]: the abundance fitness was -0.364 ± 0.087.

Regarding KAVLCADHGEKLQLFCQEDGKVICWLCERSQESRGHHTFLVE [H33S], the abundance fitness is -0.28 ± 0.15.

As for KAVLCADHGEKLQLFCQEDGKVICWLCERSQEPRGHHTFLVE [H33P], the abundance fitness is -0.771 ± 0.43. With KAVLCADHGEKLQLFCQEDGKVICWLCERSQEHRVHHTFLVE [G35V], the abundance fitness was -0.41 ± 0.064. As to KAVLCADHGEKLQLFCQEDGKVICWLCERSQEHRAHHTFLVE [G35A], the abundance fitness is -0.116 ± 0.05.

Regarding KAVLCADHGEKLQLFCQEDGKVICWLCERSQEHRKHHTFLVE [G35K], the abundance fitness is -0.244 ± 0.19. Regarding KAVLCADHGEKLQLFCQEDGKVICWLCERSQEHRDHHTFLVE [G35D], the abundance fitness turned out to be 0.022 ± 0.15.

For KAVLCADHGEKLQLFCQEDGKVICWLCERSQEHRRHHTFLVE [G35R], the abundance fitness is -0.195 ± 0.053. Consider KAVLCADHGEKLQLFCQEDGKVICWLCERSQEHRQHHTFLVE [G35Q], for which the abundance fitness was -0.215 ± 0.074. As to KAVLCADHGEKLQLFCQEDGKVICWLCERSQEHRSHHTFLVE [G35S], the abundance fitness was -0.096 ± 0.058. KAVLCADHGEKLQLFCQEDGKVICWLCERSQEHRMHHTFLVE [G35M]: the abundance fitness is -0.397 ± 0.094. KAVLCADHGEKLQLFCQEDGKVICWLCERSQEHRTHHTFLVE [G35T]: the abundance fitness was -0.079 ± 0.073.

With KAVLCADHGEKLQLFCQEDGKVICWLCERSQEHRIHHTFLVE [G35I], the abundance fitness was -0.377 ± 0.38. KAVLCADHGEKLQLFCQEDGKVICWLCERSQEHRLHHTFLVE [G35L]: the abundance fitness was -0.202 ± 0.065. With KAVLCADHGEKLQLFCQEDGKVICWLCERSQEHRPHHTFLVE [G35P], the abundance fitness was -0.366 ± 0.1. As for KAVLCADHGEKLQLFCQEDGKVICWLCERSQEHRWHHTFLVE [G35W], the abundance fitness is -0.377 ± 0.061.

In the case of KAVLCADHGEKLQLFCQEDGKVICWLCERSQEHRGDHTFLVE [H36D], the abundance fitness was -0.399 ± 0.11. On to KAVLCADHGEKLQLFCQEDGKVICWLCERSQEHRGEHTFLVE [H36E], for which the abundance fitness was -0.355 ± 0.072. In the case of KAVLCADHGEKLQLFCQEDGKVICWLCERSQEHRGAHTFLVE [H36A] it was -0.472 ± 0.055; in that of KAVLCADHGEKLQLFCQEDGKVICWLCERSQEHRGGHTFLVE [H36G], -0.442 ± 0.047.

KAVLCADHGEKLQLFCQEDGKVICWWCERSQEHRGHHTFLVE [L26W]: the abundance fitness was -0.169 ± 0.08. In the case of KAVLCADHGEKLQLFCQEDGKVICWVCERSQEHRGHHTFLVE [L26V] it was -0.05 ± 0.056; in that of KAVLCADHGEKLQLFCQEDGKVICWYCERSQEHRGHHTFLVE [L26Y], -0.015 ± 0.078.
